T1: full length human LEPR (amino acids 1-1165 of P48357, Isoform B) on cells (human, UniProt P48357 22-1165)
T1 construct: also called HEK293/Stat3-luc/hLEPR-FL; HEK293/Stat3-hLEPR-FL
T1 sequence: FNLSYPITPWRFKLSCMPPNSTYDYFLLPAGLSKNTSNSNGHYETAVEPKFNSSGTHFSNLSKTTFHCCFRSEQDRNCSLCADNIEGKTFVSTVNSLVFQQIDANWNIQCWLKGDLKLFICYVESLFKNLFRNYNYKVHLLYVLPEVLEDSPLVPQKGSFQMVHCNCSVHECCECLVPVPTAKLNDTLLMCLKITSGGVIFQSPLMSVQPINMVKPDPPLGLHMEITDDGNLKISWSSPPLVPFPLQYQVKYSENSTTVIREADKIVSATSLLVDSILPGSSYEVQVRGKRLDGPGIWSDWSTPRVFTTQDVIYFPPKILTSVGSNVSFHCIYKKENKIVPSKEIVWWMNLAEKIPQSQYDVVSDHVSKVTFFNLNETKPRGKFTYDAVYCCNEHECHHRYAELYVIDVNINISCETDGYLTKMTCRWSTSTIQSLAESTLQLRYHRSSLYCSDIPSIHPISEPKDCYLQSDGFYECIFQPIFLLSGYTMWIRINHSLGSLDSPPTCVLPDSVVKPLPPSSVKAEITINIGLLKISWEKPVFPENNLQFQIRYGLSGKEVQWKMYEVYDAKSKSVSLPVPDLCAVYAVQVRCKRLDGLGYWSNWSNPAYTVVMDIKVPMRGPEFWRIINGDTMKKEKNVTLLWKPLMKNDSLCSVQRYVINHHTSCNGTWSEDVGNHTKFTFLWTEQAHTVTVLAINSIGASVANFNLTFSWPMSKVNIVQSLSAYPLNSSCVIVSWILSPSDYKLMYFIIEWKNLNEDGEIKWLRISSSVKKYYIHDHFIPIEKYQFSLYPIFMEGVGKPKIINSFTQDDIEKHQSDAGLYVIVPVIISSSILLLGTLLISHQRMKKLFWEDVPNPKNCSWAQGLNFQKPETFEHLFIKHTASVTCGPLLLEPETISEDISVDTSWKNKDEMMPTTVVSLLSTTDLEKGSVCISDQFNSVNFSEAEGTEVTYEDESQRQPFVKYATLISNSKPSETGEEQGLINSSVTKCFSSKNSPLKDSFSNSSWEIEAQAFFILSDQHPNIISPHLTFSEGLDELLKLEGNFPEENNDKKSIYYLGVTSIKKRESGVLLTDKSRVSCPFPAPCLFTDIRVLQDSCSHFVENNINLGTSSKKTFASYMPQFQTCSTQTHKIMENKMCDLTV

T2: extracellular domain of human LEPR (amino acids 22-839 of P48357, Isoform B) with N-terminal myc-myc tag, … (human, UniProt P48357 22-839, GPI anchor at the C-terminus)
T2 construct: also called HEK293/Mycx2-hLepR(Ecto)-GPI anchored cells
T2 sequence: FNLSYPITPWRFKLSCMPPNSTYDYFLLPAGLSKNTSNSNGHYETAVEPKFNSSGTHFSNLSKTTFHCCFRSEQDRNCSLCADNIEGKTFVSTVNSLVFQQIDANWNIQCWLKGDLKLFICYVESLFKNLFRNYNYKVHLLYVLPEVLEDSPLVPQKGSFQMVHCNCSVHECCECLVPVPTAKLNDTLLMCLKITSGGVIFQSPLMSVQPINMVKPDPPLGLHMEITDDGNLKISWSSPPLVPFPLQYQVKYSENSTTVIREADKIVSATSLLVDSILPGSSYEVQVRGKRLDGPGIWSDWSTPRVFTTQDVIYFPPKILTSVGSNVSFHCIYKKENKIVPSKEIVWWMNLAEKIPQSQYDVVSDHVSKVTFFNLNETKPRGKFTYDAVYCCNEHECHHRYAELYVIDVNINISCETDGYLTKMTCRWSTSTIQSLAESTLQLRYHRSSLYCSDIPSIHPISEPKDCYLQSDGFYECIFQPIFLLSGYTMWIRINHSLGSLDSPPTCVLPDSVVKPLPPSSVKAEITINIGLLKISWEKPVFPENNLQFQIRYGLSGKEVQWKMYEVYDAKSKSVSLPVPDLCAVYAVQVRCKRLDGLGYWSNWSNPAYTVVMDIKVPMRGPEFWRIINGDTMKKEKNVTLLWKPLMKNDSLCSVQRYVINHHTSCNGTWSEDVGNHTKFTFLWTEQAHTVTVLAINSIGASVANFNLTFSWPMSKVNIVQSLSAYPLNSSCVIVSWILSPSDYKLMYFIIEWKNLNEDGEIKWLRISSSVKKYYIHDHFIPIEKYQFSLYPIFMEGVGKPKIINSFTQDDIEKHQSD


Columns and labels:
[1] = molecular target: T1, full length human LEPR (amino acids …); assay: FACS, 70 nM Ab, HEK293/Stat3-luc/hLEPR-FL, no Leptin
[2] = molecular target: T2, extracellular domain of human LEPR …; assay: FACS, 70 nM Ab, HEK293/hLEPR-GPI, no Leptin
[3] = molecular target: extracellular domain of Macaca fascicularis LEPR (amino acids 22-837 of XP_005543194.1, T827A) fused with the … (Macaca fascicularis; human); assay: cell-based or functional assay

Binder	Binding Ratio (normalized to unstained) [1]	Binding Ratio (normalized to unstained) [2]	EC50 (M); STAT3-Luc reporter, IMR-32/STAT3-Luc/MfLEPR cells [3]
H4H16679P2 (antibody, V domains shown) VH: QVQLVESGGGVVQPGRSLRLSCTASGFTFSSYAMYWVRQAPGKGLEWVSVIYYDGSYKYYADSVKGRFTISRDNSKNTLYLQMDSLRAEDTAVYYCASYNWNYWYFDFWGRGTLVTVSS VL: not shown	51 fold	1080 fold	2.49e-10 M
H4H17321P2 (antibody, V domains shown) VH: QVQLVESGGGVVQPGRSLRLSCEASGFSSSDNAMYWVRQAPGKGLEWVSVIYHDGSYKYYEDSVKGRFTIARDNSKNTLYLQMNSLRAEDTAVYYCARYNWNHWYFDVWGRGTLVTVSS VL: not shown	46 fold	1130 fold	3.68e-10 M
H4H17319P2 (antibody, V domains shown, also called REGN4461) VH: QVQLVESGGSVVQPGRSLRLSCAASGFTFSTYAMYWVRQTPGKGLEWVAVLYSDGSNKYYIDSVKGRFTISRDTSTNTLYLQMSSLRADDSALYYCARLNWDYWYFDLWGRGTLVTVSS VL: not shown	47 fold	1130 fold	3.65e-10 M
H4H16650P2 (antibody, V domains shown) VH: QVQLVESGGGVVQPGKSLRLSCVASGFTFSSDAMYWVRQAPGKGLEWVAVIYYDGNYQYYEDSVKGRFTISRDNSQNTLDLQMNSLRVDDTAVYFCARLNWDYWYLDLWGRGTLVTVSS VL: not shown	42 fold	707 fold	2.66e-10 M

From patent US20190309079A1 (Regeneron, published 2019)
